Target: p97/VCP-His, recombinant full-length mouse p97/VCP (mouse, UniProt Q01853 1-806)
Experiment: pull-down

p97/VCP-His, recombinant full-length mouse p97/VCP, sequence (Q01853 whole entry): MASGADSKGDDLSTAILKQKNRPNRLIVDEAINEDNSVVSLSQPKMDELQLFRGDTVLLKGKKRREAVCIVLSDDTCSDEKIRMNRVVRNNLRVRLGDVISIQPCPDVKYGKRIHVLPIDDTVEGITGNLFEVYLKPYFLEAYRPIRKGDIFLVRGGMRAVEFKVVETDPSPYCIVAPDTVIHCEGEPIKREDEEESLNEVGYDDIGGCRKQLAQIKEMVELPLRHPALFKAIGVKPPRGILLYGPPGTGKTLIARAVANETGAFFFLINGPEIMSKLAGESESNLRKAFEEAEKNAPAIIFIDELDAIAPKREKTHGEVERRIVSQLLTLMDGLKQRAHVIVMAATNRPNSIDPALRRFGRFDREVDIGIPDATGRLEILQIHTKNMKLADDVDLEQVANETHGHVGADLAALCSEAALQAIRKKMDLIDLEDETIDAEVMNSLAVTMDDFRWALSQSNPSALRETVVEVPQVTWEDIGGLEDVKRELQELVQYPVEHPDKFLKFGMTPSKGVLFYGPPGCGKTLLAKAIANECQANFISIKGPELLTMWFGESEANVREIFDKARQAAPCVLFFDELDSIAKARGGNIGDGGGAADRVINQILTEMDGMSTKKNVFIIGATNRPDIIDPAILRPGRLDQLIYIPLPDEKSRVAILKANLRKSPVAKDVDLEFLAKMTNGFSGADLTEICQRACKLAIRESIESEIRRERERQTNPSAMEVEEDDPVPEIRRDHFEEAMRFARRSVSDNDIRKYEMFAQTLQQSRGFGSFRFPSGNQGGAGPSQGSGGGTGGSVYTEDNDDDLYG

binding result: binds
B1: erasin-His, recombinant full-length human erasin (natural protein)
chain: MLWFQGAIPAAIATAKRSGAVFVVFVAGDDEQSTQMAASWEDDKVTEASSNSFVAIKIDTKSEACLQFSQIYPVVCVPSSFFIGDSGIPLEVIAGSVSADELVTRIHKVRQMHLLKSETSVANGSQSESSVSTPSASFEPNNTCENSQSRNAELCEIPPTSDTKSDTATGGESAGHATSSQEPSGCSDQRPAEDLNIRVERLTKKLEERREEKRKEEEQREIKKEIERRKTGKEMLDYKRKQEEELTKRMLEERNREKAEDRAARERIKQQIALDRAERAARFAKTKEEVEAAKAAALLAKQAEMEVKRESYARERSTVARIQFRLPDGSSFTNQFPSDAPLEEARQFAAQTVGNTYGNFSLATMFPRREFTKEDYKKKLLDLELAPSASVVLLPAGRPTASIVHSSSGDIWTLLGTVLYPFLAIWRLISNFLFSNPPPTQTSVRVTSSEPPNPASSSKSEKREPVRKRVLEKRGDDFKKEGKIYRLRTQDDGEDENNTWNGNSTQQM

Source: paper PMC2768832 (The Journal of Cell Biology, 2009)
